Measured values published in patent publication US20060140858A1, “Drug pre-targeting by means of bi-specific antibodies and hapten constructs comprising a carrier peptide and the active agent(s)” (Immunomedics, Inc., priority 2002, published 2006).
Marks after values point to notes of the source that are not given here.

Assay: In-vitro stability of In/In-111 IMP 224, reverse phase HPLC
Assay type: physicochemical
Experimental: Aliquots (0.15 mL, 370 μCi) were withdrawn and mixed with 0.9 mL 0.5 M citrate buffer pH 4.0, 0.9mL 0.5 M citrate buffer pH 5.0, and 0.9 mL 0.5 M phosphate buffer pH 7.5. The stability of the labeled peptide was followed by reverse phase HPLC. HPLC Conditions: Waters Radial-Pak C-18 Nova-Pak 8×100 mm, Flow Rate 3 mL/min, Gradient: 100% A=0.3.% NH4OAc to 100% B=90% CH3CN, 0.3% NH4OAc over 10 min.

For `COc1cccc2c1C(=O)c1c(O)c3c(c(O)c1C2=O)C[C@@](O)(C(CO)=NNc1ccc(C(=O)N[C@@H](CCCCNC(=O)CN(CCN(CCN(CC(=O)O)CC(=O)O)CC(=O)O)CC(=O)O)C(=O)N[C@@H](Cc2ccc(O)cc2)C(=O)N[C@@H](CCCCNC(=O)CN(CCN(CCN(CC(=O)O)CC(=O)O)CC(=O)O)CC(=O)O)C(N)=O)cc1)C[C@@H]3O[C@H]1C[C@H](N)[C@H](O)[C@H](C)O1` [IMP 224, Dox = N—NH—C6H4—CO-Lys(DTPA)-Tyr-Lys(DTPA)-NH2], the “Intact Peptide” value (Kit, time cell empty (first line)) was 00, the “Intact Peptide” value (Kit, time printed '1 hr') was 9 and the “Intact Peptide” value (pH 4.0, time printed '4 min') was 00. For the same molecule, the “Intact Peptide” value (pH 4.0, time printed '9 hr') was 5, the “Intact Peptide” value (pH 4.0, time printed 'hr', some peptide decomposed but not included in peak areas) was 00* and the “Intact Peptide” value (pH 5.0, time printed '0 min') was 00. For the same molecule, the “Intact Peptide” value (pH 5.0, time printed '0 hr') was 1, the “Intact Peptide” value (pH 5.0, time printed 'hr', some peptide decomposed but not included in peak areas) was 00* and the “Intact Peptide” value (pH 7.5, time printed '0 hr') was 0. The “Intact Peptide” value (pH 7.5, time printed '.5 hr' (first line)) was 00 and the “Intact Peptide” value (pH 7.5, time printed '.5 hr' (second line)) was 4.
